This is an account of results in patent US20110289632A1, “METHYLKETONE SYNTHASE, PRODUCTION OF METHYLKETONES IN PLANTS AND BACTERIA” (The Regents of the University of Michigan, priority 2009, published 2011).

Data set [1] can be described thus: Treatment of spent medium of ShMKS2-expressing E. coli with purified ShMKS1. To be noted: 3 μg/mL final concentration, incubated 2 h prior to hexane extraction. The class given is biochemical. On the procedure:
Moreover, the treatment with purified ShMKS1 seemed to favor an increase in 2-tridecanone over other methylketones (FIG. 18).
Aliquots (1 mL) of the spent medium of E. coli expressing ShMKS2, obtained by centrifuging the culture solution after the incubation time at 5,000 rpm for 15 min and collecting the solution without the cells, were treated in the following ways: 1. Incubated with 40 μl (3 μg) of purified MKS1 in phosphate buffer (12.5 mM NaH2PO4, 125 mM NaCl, 2 mM DTT, pH 6.8) for 2 hrs at 30° C. 3. Incubated at 75° C. for 30 min followed by 30 min at 30° C. 4. Incubated with 1 mL of 2M H2SO4 at 75° C. for 30 min followed by 30 min at 30° C. After the various treatments, 1 mL of hexane containing 5 ng/μL linalool as an internal standard was added and the resulting mixture was vortexed and centrifuged at 5000 rpm for 10 min. Two μL of the resulting extract were injected into the GC-MS for determination of methylketones. GC-MS and product analysis were performed as described by Ben-Israel et al, (2009) Multiple biochemical and morphological factors underlie the production of methylketones in tomato trichomes, Plant Physiology 151: 1952-1964.

Data set [2] deals with 3-ketomyristoyl-ACP. In words: In vitro thioesterase activity assay. The class given is biochemical. On the procedure:
To examine the potential thioesterase activity of ShMKS1 and ShMKS2 in vitro, we added 2.5 μg of each protein to a 500 μL solution of freshly prepared 3-ketomyristoyl-ACP. This protein-linked substrate was prepared using a sequential in vitro enzymatic system involving the addition of multiple starting materials and enzymes and the reaction allowed to proceed for 5 hr (see Examples, Materials, and Methods). Due to the highly unstable nature of 3-ketomyristoyl-ACP, this compound was not further purified but instead the solution in which it was synthesized was used as the “substrate solution” for qualitative in vitro thioesterase activity assays.
Aliquots of this substrate solution were incubated with buffer, ShMKS1, ShMKS2, or both ShMKS1 and ShMKS2 for 30 min at 23° C. […]
3-Ketomyristoyl-ACP was synthesized in a 500 μL reaction volume containing 1,3-bis(tris(hydroxymethyl)methylamino) propane (20 mM, pH 7.0), malonyl-CoA (0.2 mM), lauroyl-CoA (0.2 mM), ShACP (0.1 mM), EcFabD (10 μg) and MtFabH (10 μg). […] Hexane extracts were analyzed by GC-MS as described above. The values for heat-treated samples shown in FIG. 20 were corrected for loss of methylketones during the heating step, as determined by comparisons with standards.

The test system of data set [3] is E. coli cells. Nature of the data set: GC-MS of methylketones in spent media of E. coli cells expressing ShMKS1, ShMKS2 or ShMKS2 (D79A). The class given is cell-based, Escherichia coli. To be noted: with or without acid and heat treatment. On the procedure: To test if expression of either ShMKS1 or ShMKS2 (without its transit peptide) in E. coli results in the formation of 3-ketoacids, we collected spent media of bacterial cells expressing each of them (by centrifuging out the cells at the end of the incubation period), heated the spent media at 75° C. for 30 min in the presence of 1 M sulfuric acid, extracted with hexane, then injected the hexane fraction in a GC-MS. […] On the other hand, the spent medium of E. coli cells expressing ShMKS2 contained 5.6±0.32 μg/μL of total methylketones, and the amount of methylketones increased […], to 40.7±2.1 μg/μL, after the spent medium was treated with acid and heat (FIG. 17).
The coding regions of ShMKS1 and ShMKS2 (minus the transit peptide-encoding region) were each amplified by PCR and inserted into the E. coli expression vector pEXP-TOPO-CT (Invitrogen). The expression vectors were introduced into E. coli BL21 Star (DE3) cells, and gene expression was induced by the addition of 0.5 mM IPTG after the culture optical density at 600 nm had reached 0.65. After induction with IPTG and growth at 18° C. overnight, the cells expressing ShMKS1 or ShMKS2 were centrifuged at 5000 rpm for 15 minutes, and 1-mL aliquots of the spent medium were placed in individual vials for further analysis. […]

B1: ShMKS1: methylketone synthase 1 from Solanum habrochaites glabratum (SEQ ID NO: 17); recombinant, 3-ketoacid decarboxylase (protein)
chain: MEKSMSPFVKKHFVLVHTAFHGAWCWYKIVALMRSSGHNVTALDLGASGINPKQALQIPNFSDYLSPLMEFMASLPANEKIILVGHALGGLAISKAMETFPEKISVAVFLSGLMPGPNIDATTVCTKAGSAVLGQLDNCVTYENGPTNPPTTLIAGPKFLATNVYHLSPIEDLALATALVRPLYLYLAEDISKEVVLSSKRYGSVKRVFIVATENDALKKEFLKLMIEKNPPDEVKEIEGSDHVTMMSKPQQLFTTLLSIANKYK
modifications: ShMKS1
notes: recombinant, 3-ketoacid decarboxylase
Consider B1, for which, in data set [1], the “levels of extractable methylketones vs spent medium treated with phosphate buffer alone” value is given as “significantly higher”. The “amount of 2-tridecanone vs buffer-incubated sample treated with acid and heat” value in data set [2] (2.5 μg protein, 30 min at 23° C., directly extracted with hexane) is given as “slightly higher, but not significantly so”. For the same molecule, the “in vitro thioesterase activity” value in data set [2] (3-ketomyristoyl-ACP substrate solution) is “little or no”. Besides, the “methylketones in spent medium” value in data set [3] was “no methylketones”.
